Results reported in patent US20190256599A1 (GlaxoSmithKline, published 2019).

B2: rabbit Fc-tagged recombinant human ICOS (Fc fusion, UniProt Q9Y6W8 21-140, looked up, not shown: a dimerising Fc or GST)
chain: EINGSANYEMFIFHNGGVQILCKYPDIVQQFKMQLLKGGQILCDLTKTKGSGNTVSIKSLKFCHSQLSNNSVSFFLYNLDHSHANYYFCNLSIFDPPPFKVTLTGGYLHIYESQLCCQLK
notes: Generated in-house; also called dimeric human ICOS; Fc-fusion version of the recombinant ICOS protein
B3: recombinant ICOS protein (R&D Systems) (receptor, human, UniProt Q9Y6W8 21-141, looked up)
chain: EINGSANYEMFIFHNGGVQILCKYPDIVQQFKMQLLKGGQILCDLTKTKGSGNTVSIKSLKFCHSQLSNNSVSFFLYNLDHSHANYYFCNLSIFDPPPFKVTLTGGYLHIYESQLCCQLKF
notes: Bought; also called ICOS receptor

Key:
[1] = molecular target: T1, human ICOS on cells (human, UniProt Q9Y6W8 21-199); experiment: cell-based or functional assay
T1 sequence (looked up): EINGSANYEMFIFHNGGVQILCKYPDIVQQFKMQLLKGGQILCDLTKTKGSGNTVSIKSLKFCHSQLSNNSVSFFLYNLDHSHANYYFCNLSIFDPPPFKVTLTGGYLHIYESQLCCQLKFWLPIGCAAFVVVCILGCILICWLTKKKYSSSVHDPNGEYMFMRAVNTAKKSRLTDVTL

[2] = molecular target: rabbit Fc-tagged recombinant Cynomolgus ICOS (cynomolgus macaque); experiment: Biacore (SPR), column MONKEY kd (1/s)
[3] = molecular target: rabbit Fc-tagged recombinant Cynomolgus ICOS (cynomolgus macaque); experiment: Biacore (SPR), column MONKEY ka (1/Ms)
[4] = molecular target: B2; experiment: Biacore (SPR), column HUMAN kd (1/s)
Text: (§1) The ICOS binding data was fitted to a 1:1 kinetics model using the T200 data analysis software.

[5] = molecular target: B2; experiment: Biacore (SPR), column HUMAN ka (1/Ms)
Text: as §1

[6] = molecular target: rabbit Fc-tagged recombinant Cynomolgus ICOS (cynomolgus macaque); experiment: SPR, Biacore T200, Fc-tagged recombinant cynomolgus ICOS, 1:1 kinetics model
[7] = molecular target: B2; experiment: SPR, Biacore T200, Fc-tagged recombinant human ICOS, 1:1 kinetics model
Text: as §1

[8] = molecular target: B2; experiment: SPR, Biacore; affinity of H2L5 for dimeric human ICOS against that of ICOS-L
[9] = molecular target: B2; experiment: BIAcore target capture, capture level hICOS 23.7 RU, Rmax 26.5 RU
[10] = molecular target: B2; experiment: BIAcore target capture, capture level hICOS 39.8 RU, Rmax 40.5 RU
[11] = molecular target: human FcγR I (human) (UniProt P12314); experiment: SPR (ProteOn XPR36; table title says BIAcore), His-tagged FcγR captured, antibody as analyte, equilibrium model
[12] = molecular target: human FcγR IIa (R131) (human) (UniProt P12318); experiment: as above
[13] = molecular target: human FcγR IIb (human) (UniProt P31994); experiment: as above
[14] = molecular target: B3; experiment: MSD competition assay on plate-coated ICOS; blocked ligand: human ICOS ligand at 1 ug/mL
Experimental: (§2) MSD plates were incubated overnight at 4° C. with 10 μg/mL recombinant ICOS protein (R&D Systems) diluted in PBS. […] Sulfo-tagged streptavidin at 10 μg/mL in Diluent 100 was used for detection of the biotinylated ligand. All incubations were at room temperature for one hour on a plate shaker unless otherwise noted. The plates were read immediately following MSD Read buffer addition on a MSD MESO Quick Plex SQ 120 and data analyzed on MSD workbench software (Meso-Scale, Rockville, Md.).

[15] = molecular target: B3; experiment: MSD competition assay: plate-coated recombinant ICOS, H2L5 IgG4PE titrated against 1 µg/mL human ICOS ligand (B7-H2); inhibition is partial
Experimental: as §2, with “Readbuffer” for “Read buffer”, “(Meso Scale Discovery).” for “(Meso-Scale, Rockville, Md.).”

[16] = molecular target: T2, human ICOS ligand (B7-H2) (human, UniProt O75144 19-258, limits assumed); experiment: Biacore (SPR), human ICOS-L on dimeric human ICOS
T2 construct: also called native ICOS-L; CD275
T2 sequence (looked up): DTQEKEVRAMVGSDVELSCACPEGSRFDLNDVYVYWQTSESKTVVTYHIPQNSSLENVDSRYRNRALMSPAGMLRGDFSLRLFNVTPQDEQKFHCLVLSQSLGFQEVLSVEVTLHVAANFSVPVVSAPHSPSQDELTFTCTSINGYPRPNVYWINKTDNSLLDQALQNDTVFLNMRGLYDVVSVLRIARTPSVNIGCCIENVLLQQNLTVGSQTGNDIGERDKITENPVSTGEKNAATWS

[17] = molecular target: T2, human ICOS ligand (B7-H2); experiment: Biacore sensorgrams with fitted curves, ICOS-L on dimeric human ICOS
[18] = molecular target: T2, human ICOS ligand (B7-H2); experiment: MSD plate assay: 1 µg/mL human ICOS ligand (B7-H2) on plate-coated recombinant ICOS, detected with biotinylated anti-ICOS-L and sulfo-tag streptavidin
Experimental: as §2, with “Readbuffer” for “Read buffer”, “(Meso Scale Discovery).” for “(Meso-Scale, Rockville, Md.).”

Sequence of human FcγR I (human) (P12314 16-288 limits assumed): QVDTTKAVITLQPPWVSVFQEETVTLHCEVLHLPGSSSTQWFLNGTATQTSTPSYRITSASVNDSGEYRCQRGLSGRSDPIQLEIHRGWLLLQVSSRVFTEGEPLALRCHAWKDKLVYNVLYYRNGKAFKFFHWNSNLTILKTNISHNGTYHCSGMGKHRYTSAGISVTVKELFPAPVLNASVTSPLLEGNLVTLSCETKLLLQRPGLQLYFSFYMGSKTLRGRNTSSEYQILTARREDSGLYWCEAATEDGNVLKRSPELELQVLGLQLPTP
Sequence of human FcγR IIa (R131) (human) (P12318 36-218 H167R limits assumed): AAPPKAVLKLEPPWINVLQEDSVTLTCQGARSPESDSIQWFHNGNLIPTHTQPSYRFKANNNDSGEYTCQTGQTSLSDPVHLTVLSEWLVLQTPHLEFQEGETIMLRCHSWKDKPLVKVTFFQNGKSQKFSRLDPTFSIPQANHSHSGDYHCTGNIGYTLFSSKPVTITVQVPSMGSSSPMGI
Sequence of human FcγR IIb (human) (P31994 46-217 limits assumed): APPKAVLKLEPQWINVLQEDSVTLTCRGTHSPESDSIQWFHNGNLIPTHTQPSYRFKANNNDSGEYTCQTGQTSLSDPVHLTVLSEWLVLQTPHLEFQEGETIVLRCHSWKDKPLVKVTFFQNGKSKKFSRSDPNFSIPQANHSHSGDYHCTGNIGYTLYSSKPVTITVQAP

B1: H2L5 IgG4PE (antibody, V domains shown)
VH: QVQLVQSGAEVKKPGSSVKVSCKASGYTFTDYAMHWVRQAPGQGLEWMGLISIYSDHTNYNQKFQGRVTITADKSTSTAYMELSSLRSEDTAVYYCGRNNYGNYGWYFDVWGQGTTVTVSS
VL: EIVLTQSPATLSLSPGERATLSCSASSSVSYMHWYQQKPGQAPRLLIYDTSKLASGIPARFSGSGSGTDYTLTISSLEPEDFAVYYCFQGSGYPYTFGQGTKLEIK
notes: Humanized variant of murine clone 422.2; human IgG4 with S228P and L235E (EU numbering), called IgG4PE; also called H2L5 hIgG4PE; ICOS IgG4PE
- EC50 of IFNγ induction, isolated human CD4+ T cells, immobilized format, first donor [1]: 3.8 µg/mL
- EC50 of IFNγ induction, isolated human CD4+ T cells, immobilized format, second donor [1]: 4.5 µg/mL
- EC50 of IFNγ induction, isolated human CD4+ T cells, soluble format, first donor [1]: 6 µg/mL
- EC50 of IFNγ induction, isolated human CD4+ T cells, soluble format, second donor [1]: 4.3 µg/mL
- koff [2]: 0.000371 s⁻¹
- kon [3]: 391000 M⁻¹ s⁻¹
- koff [4]: 0.000396 s⁻¹
- kon [5]: 297000 M⁻¹ s⁻¹
- Kd [6]: 0.95 nM
- Kd [7]: 1.34 nM
- fold higher affinity than native ICOS-L/CD275 [8]: ~17 fold
- stoichiometry [9]: 0.6
- stoichiometry [10]: 0.5
- Kd [11]: 645 nM
- Kd [12]: 2500 nM
- Kd [13]: 1470 nM
- IC50 (read off the curve) [14]: ~2 µg/mL
- IC50 (read off the curve) [15]: ~2 µg/mL

Binder: B2
- Kd [16]: 22.6 nM
- Kd [17]: 22.6 nM

Binder: B3
- binding result [18]: binds
